Laboratory results from patent publication US20130122568.
Positions count from the first letter of the chain named.

How the values were obtained:
Assay in all cases: cleavage_in_vitro
[1] = test system: T1, BsmBI-HF N185Y/R232A (Bacillus stearothermophilus); conditions: NEB2, 55 C
T1 sequence: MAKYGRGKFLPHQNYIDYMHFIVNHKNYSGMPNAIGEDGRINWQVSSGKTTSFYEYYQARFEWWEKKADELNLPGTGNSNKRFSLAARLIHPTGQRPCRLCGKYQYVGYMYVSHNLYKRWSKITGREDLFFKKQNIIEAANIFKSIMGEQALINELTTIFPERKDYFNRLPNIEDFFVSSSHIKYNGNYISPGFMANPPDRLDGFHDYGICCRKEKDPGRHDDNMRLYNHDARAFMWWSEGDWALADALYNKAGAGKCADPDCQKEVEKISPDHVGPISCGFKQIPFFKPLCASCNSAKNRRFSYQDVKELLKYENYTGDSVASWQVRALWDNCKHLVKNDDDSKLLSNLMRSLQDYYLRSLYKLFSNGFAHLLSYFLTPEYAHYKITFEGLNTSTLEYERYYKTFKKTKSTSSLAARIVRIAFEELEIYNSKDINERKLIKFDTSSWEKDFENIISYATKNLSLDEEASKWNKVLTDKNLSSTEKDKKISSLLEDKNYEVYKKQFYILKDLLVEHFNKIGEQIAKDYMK

[2] = target: T2, ScaI-HF H193A/S201F (Streptomyces caespitosus) (UniProt O52691); conditions: NEB2, 37 C
T2 sequence: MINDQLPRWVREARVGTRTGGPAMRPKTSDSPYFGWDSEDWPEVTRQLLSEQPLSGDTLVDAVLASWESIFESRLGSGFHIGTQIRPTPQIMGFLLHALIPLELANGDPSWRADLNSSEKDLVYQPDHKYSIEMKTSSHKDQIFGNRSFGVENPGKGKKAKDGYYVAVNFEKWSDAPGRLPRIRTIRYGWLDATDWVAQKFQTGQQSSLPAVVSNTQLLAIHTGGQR

[3] = test system: T3, SbfI (Streptomyces species Bf-61); conditions: NEB1, 37 C
T3 sequence: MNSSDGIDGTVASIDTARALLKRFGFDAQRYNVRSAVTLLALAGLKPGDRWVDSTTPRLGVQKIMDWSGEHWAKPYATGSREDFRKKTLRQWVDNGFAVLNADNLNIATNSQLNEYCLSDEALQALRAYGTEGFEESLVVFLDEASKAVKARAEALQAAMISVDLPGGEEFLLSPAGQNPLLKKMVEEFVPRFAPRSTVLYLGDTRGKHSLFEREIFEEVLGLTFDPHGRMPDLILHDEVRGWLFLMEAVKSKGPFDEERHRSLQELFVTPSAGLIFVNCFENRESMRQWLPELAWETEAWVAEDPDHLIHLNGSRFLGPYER

[4] = test system: T4, NcoI-HF A2T/R31A (Nocardia corallina); conditions: NEB4, 37 C
T4 sequence: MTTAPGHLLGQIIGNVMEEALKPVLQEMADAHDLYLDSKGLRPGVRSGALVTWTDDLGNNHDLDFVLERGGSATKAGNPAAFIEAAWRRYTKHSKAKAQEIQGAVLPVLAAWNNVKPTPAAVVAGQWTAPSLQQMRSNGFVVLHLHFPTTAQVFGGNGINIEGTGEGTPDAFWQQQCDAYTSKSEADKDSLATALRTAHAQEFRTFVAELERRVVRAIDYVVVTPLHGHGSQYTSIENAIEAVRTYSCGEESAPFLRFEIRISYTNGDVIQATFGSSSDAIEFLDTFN

[5] = test system: T5, SphI (Streptomyces phaeochromogenes); conditions: NEB1, 37 C
T5 sequence: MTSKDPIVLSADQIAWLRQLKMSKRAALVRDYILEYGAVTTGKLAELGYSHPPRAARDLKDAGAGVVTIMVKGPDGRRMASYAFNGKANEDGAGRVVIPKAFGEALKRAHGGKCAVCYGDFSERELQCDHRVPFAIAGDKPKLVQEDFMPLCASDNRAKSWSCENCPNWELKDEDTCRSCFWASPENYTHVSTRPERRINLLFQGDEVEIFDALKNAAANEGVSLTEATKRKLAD

[6] = target: EcoRI (Escherichia coli RY13) (UniProt P00642); conditions: NEB3, 37 C
[7] = test system: T6, BsmBI (Bacillus stearothermophilus); conditions: NEB3, 55 C
T6 sequence: T1 sequence with Y185N, A232R

[8] = test system: T7, NcoI (Nocardia corallina); conditions: NEB1, 37 C
T7 sequence: T4 sequence with T2A, A31R

[9] = target: T8, BamHI (Bacillus amyloliquefaciens) (UniProt P23940); conditions: NEB3, 37 C
T8 sequence: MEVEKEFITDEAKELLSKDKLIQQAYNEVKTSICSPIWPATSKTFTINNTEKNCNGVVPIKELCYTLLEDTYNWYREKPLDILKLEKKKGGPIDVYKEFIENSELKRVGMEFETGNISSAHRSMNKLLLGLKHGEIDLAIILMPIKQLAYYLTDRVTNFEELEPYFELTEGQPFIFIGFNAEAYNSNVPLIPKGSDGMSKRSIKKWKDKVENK

Chain of EcoRI (Escherichia coli RY13) (P00642 whole entry): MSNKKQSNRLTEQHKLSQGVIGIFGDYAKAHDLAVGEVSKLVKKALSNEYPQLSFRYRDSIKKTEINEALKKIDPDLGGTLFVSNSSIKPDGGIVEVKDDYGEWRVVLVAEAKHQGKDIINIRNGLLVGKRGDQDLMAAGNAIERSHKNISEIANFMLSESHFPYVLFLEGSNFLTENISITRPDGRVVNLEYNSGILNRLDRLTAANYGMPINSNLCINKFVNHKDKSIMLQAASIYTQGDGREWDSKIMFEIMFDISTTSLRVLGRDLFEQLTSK

lambda phage DNA
activity (fidelity index) [1]: > 500 | activity (fidelity index) [2]: 1000 | activity (fidelity index) [3]: 32 | activity (fidelity index) [4]: > 64000 | activity (fidelity index) [5]: 64 | activity (fidelity index) [6]: 250 | activity (fidelity index) [7]: 120 | activity (fidelity index) [8]: 120 | activity (fidelity index) [9]: 32
